Test results: US20130129739A1

Target: human prolactin receptor (PRLR) on cells (human) (UniProt P16471)
Experiment: cell-based or functional assay

human prolactin receptor (PRLR) on cells (human), sequence (P16471 25-622): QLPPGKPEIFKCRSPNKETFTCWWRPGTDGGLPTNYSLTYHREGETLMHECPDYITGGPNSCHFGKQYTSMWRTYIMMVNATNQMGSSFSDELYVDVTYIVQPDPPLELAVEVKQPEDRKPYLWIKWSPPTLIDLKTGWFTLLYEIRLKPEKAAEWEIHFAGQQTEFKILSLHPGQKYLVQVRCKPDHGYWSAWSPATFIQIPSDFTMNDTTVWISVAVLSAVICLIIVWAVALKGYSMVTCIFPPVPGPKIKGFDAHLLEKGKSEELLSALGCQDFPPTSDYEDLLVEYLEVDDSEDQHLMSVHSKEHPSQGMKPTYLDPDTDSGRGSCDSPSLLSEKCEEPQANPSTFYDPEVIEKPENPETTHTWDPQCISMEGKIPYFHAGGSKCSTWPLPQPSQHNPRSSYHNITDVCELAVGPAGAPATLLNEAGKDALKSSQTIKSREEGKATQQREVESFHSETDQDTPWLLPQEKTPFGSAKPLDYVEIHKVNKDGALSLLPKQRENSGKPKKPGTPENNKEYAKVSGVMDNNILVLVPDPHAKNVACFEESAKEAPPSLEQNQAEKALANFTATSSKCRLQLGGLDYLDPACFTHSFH

Inhibition of phosphorylation of ERK1/2 in % at 7.5 µg/ml (ELISA, prolactin-treated T47D lysates): 9%
Inhibition of phosphorylation of PRLR in % at 7.5 µg/ml (ELISA, prolactin-treated T47D lysates): 2%
Inhibition of phosphorylation of STAT5 in % at 7.5 µg/ml (ELISA, prolactin-treated T47D lysates): 0%
Substance: Negative control (Table 8)
